Data as given in patent publication US20240240191, “RNA APTAMERS SPECIFIC FOR A-SYNUCLEIN PROTEIN FIBER CONFORMERS” (COMMISSARIAT A L'ENERGIE ATOMIQUE ET AUX ENERGIES …, published 2024).

Experiments:
[1] = biological target: T1, alpha-synuclein fibril, F-type conformer (fibrils) (UniProt P37840 P37840:1-140); assay: FP filter; nitrocellulose filter; retained much more than random sequence
[2] = biological target: alpha-synuclein fibril P110 (C-terminally truncated) (UniProt P37840 P37840:1-110); assay: FP filter; nitrocellulose filter; conditions: tags: fibril lacking the 30 C-terminal residues, chain copies: fibril (stated)
Procedure: (§1) The affinity of candidate aptamers as well as that of aptamers from the literature was also measured against different “amyloid” type fibers (Tau1N3R fibers and Aβ40 fibers), in addition to the conformers of F and R α-syn fiber. The affinity of the candidate aptamers against the α-Syn fiber “P110” was also measured. This fiber was made from α-Syn protein truncated from amino acid n° 110 (thus missing the 30 amino acids of the C-terminal domain). The oligonucleotides (aptamers) at 10 nM (hybridized by heat shock to SpG-LNA radioactively marked with P32 for RNA2′F chemistry oligonucleotides, or directly marked with P32 for DNA oligonucleotides) were presented to proteins at 250 nM in a solution of Ts1X containing Igepal at 0.1% and ssDNA added in a 5-1 proportion relative to the oligonucleotides (that is to say between 0.135 μg/ml and 17.325 μg/ml). After 30 min of incubation at 37° C., 25 μL of each mixture is deposited on the nitrocellulose membrane, then filtered. Two washes with Ts1X are then carried out. The amounts of oligonucleotides retained on the nitrocellulose membrane are quantified by exposing the membrane to a photostimulable phosphorus screen. The Kd and Bₘₐₓ were calculated by means of the Prism software using a non-linear regression model analyzing the (specific and non-specific) total affinity of a candidate for the target, assuming that there is only one binding site on the target for the candidate. The measurements were carried out in triplicate (three independent experiments on different days) for the F and R type α-Syn fibers, and in duplicate for the other fibers (Tau1N3R and the fibers Aβ40, and P110) as well as for α-Syn monomers.

[3] = biological target: T1, alpha-synuclein fibril, F-type …; assay: FP filter; nitrocellulose filter; 10 nM aptamer, 1 uM fibers, Ts1X, 37 C
[4] = biological target: amyloid-beta 40 fibril (UniProt P05067 P05067:672-711); assay: FP filter; nitrocellulose filter; conditions: tags: Abeta40 fibers, chain copies: fibril (stated)
Procedure: as §1

[5] = biological target: T1, alpha-synuclein fibril, F-type …; assay: FP filter; nitrocellulose filter; Ts1X (10 mM HEPES pH 7.6, 150 mM NaCl, 5 mM KCl, 1.5 mM CaCl2, 1 mM MgCl2), 0.1% Igepal, ssDNA competitor, 37 C; Bmax 52.48 fmol; 3/3
[6] = biological target: T1, alpha-synuclein fibril, F-type …; assay: FP filter; nitrocellulose filter; not above random sequence
[7] = biological target: alpha-synuclein fibril, R-type conformer (ribbons) (UniProt P37840 P37840:1-140); assay: as above

Sequence of amyloid-beta 40 fibril (P05067 672-711, one chain of several): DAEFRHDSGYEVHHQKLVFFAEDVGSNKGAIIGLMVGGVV

B1: 4F05-G (ssRNA)
RNA: GGGAGAGUAUCCGUUGGAGGCAUGCCGCAGGCUACACCACAGCUUCCCCUUCAGCGUGUUGUGGAUACUCGGCAGAUCGGAAGAGCGUCGUGUAGGGCAUUGCCCCAGCGUGACUGCCUA
modifications: 2'-F on all pyrimidines
B1: binds [1].

B2: N124-G (ssRNA)
RNA: GGGAGAGUAUCCGUUGAGGCUGAUCCGACCAUGCUUCAACUUAUACCUCGGGGACUGUAGAUCGGAAGAGCGUCGUGUAGGGCAUUGCCCCAGCGUGACUGCCUA
modifications: 2'-F on all pyrimidines
B2: no binding [2].

B3: P65-G (P65_10854) (ssRNA)
RNA: GGGAGAGUAUCCGUUGGAGGCAUCGCACAGUGUACACCUACACACAGCAUACCUGUUGGCAUCCCAGGUUGCCAGAUCGGAAGAGCGUCGUGUAGGGCAUUGCCCCAGCGUGACUGCCUA
modifications: 2'-F on all pyrimidines
B3: binds [1].

B4: N3-G (ssRNA)
RNA: GGGAGAGUAUCCGUUGAGGCUGACAACGCGUUUACCUCACACCACGUCAUCCGUUGCCAGAUCGGAAGAGCGUCGUGUAGGGCAUUGCCCCAGCGUGACUGCCUA
modifications: 2'-F on all pyrimidines
For B4, the binding signal [3] was 3.5 fold over Scr2-G.

B5: F5R2 (ssDNA)
DNA: ATCGAGTGGACGAGTGCCTCCGGTACGAGCTGTCTGATGGGTTTGCGCGCAGGATCCA
B5: no binding ([2]; label: 32P); no binding ([4]; label: 32P).

B6: 4F03-G (ssRNA)
RNA: GGGAGAGUAUCCGUUGGAGGCAUGCAACAGACGCACCGUACACACAUCUUGGCCGUUGGCUGCCCGACCAGCCAGAUCGGAAGAGCGUCGUGUAGGGCAUUGCCCCAGCGUGACUGCCUA
modifications: 2'-F on all pyrimidines
B6: binds [1].

B7: 4F02-G (ssRNA)
RNA: GGGAGAGUAUCCGUUGGAGGCAUGCUGGCAGCACGCACCGCUGACCGCUGGCUGCACUAUGCGUGUGGAGUGCAGAUCGGAAGAGCGUCGUGUAGGGCAUUGCCCCAGCGUGACUGCCUA
modifications: 2'-F on all pyrimidines
B7: binds [1].

B8: 4F01-G (ssRNA)
RNA: GGGAGAGUAUCCGUUGGAGGCAUAGCAGCACACGACCAGUGUGCCCCACACCCAGUGGUGGUCUGUGGUGUGCAGAUCGGAAGAGCGUCGUGUAGGGCAUUGCCCCAGCGUGACUGCCUA
modifications: 2'-F on all pyrimidines
B8: binds [1].

B9: F124-G (PF_124) (ssRNA)
RNA: GGGAGAGUAUCCGUUGGAGGCAUCACGGACACCUACCCGACGGCAUGUCAGGACACAUGUUGUGCUCCGUGUGAGAUCGGAAGAGCGUCGUGUAGGGCAUUGCCCCAGCGUGACUGCCUA
modifications: 2'-F on all pyrimidines
B9: binds [1].

B10: N30-G (ssRNA)
RNA: GGGAGAGUAUCCGUUGAGGCUGAUCGAUCCACGUCCGACAACGCGUUUACUCGCCAUCAGAUCGGAAGAGCGUCGUGUAGGGCAUUGCCCCAGCGUGACUGCCUA
modifications: 2'-F on all pyrimidines
For B10, the binding result [2] was “no binding”, the binding result [4] was “no binding” and the Kd [5] was 6.62 nM.

B11: Tau 3146 (ssDNA)
DNA: GCCTGTTGTGAGCCTCCTGTCGAACCTTTGGGGTGGCTTGACGAAGAAAGTAGTTGAGCGTTTATTCTTGTCTCCC
B11: no binding [6]; no binding [7].
